# Reference: patent US20120121608A1 (CALIFORNIA INSTITUTE OF TECHNOLOGY, published 2012)
# B1: TNF receptor, endogenous, in mouse embryonic fibroblasts (MEF) (receptor, UniProt P25118 30-454, looked up)
# chain: LVPSLGDREKRDSLCPQGKYVHSKNNSICCTKCHKGTYLVSDCPSPGRDTVCRECEKGTFTASQNYLRQCLSCKTCRKEMSQVEISPCQADKDTVCGCKENQFQRYLSETHFQCVDCSPCFNGTVTIPCKETQNTVCNCHAGFFLRESECVPCSHCKKNEECMKLCLPPPLANVTNPQDSGTAVLLPLVILLGLCLLSFIFISLMCRYPRWRPEVYSIICRDPVPVKEEKAGKPLTPAPSPAFSPTSGFNPTLGFSTPGFSSPVSSTPISPIFGPSNWHFMPPVSEVVPTQGADPLLYESLCSVPAPTSVQKWEDSAHPQRPDNADLAILYAVVDGVPPARWKEFMRFMGLSEHEIERLEMQNGRCLREAQYSMLEAWRRRTPRHEDTLEVVGLVLSKMNLAGCLENILEALRNPAPSSTTRLPR
# notes: also called TNF receptor complex
# B2: TNF receptor, endogenous, in HeLa cells (receptor, human, UniProt P19438 30-455, looked up)
# chain: LVPHLGDREKRDSVCPQGKYIHPQNNSICCTKCHKGTYLYNDCPGPGQDTDCRECESGSFTASENHLRHCLSCSKCRKEMGQVEISSCTVDRDTVCGCRKNQYRHYWSENLFQCFNCSLCLNGTVHLSCQEKQNTVCTCHAGFFLRENECVSCSNCKKSLECTKLCLPQIENVKGTEDSGTTVLLPLVIFFGLCLLSLLFIGLMYRYQRWKSKLYSIVCGKSTPEKEGELEGTTTKPLAPNPSFSPTPGFTPTLGFSPVPSSTFTSSSTYTPGDCPNFAAPRREVAPPYQGADPILATALASDPIPNPLQKWEDSAHKPQSLDTDDPATLYAVVENVPPLRWKEFVRRLGLSDHEIDRLELQNGRCLREAQYSMLATWRRRTPRREATLELLGRVLRDMDLLGCLEDIEEALCGPAALPPAPSLLR
# B3: Sam68, endogenous, in mouse embryonic fibroblasts (MEF) (other, UniProt Q60749 1-443, looked up)
# chain: MQRRDDPASRLTRSSGRSCSKDPSGAHPSVRLTPSRPSPLPHRPRGGGGGPRGGARASPATQPPPLLPPSTPGPDATVVGSAPTPLLPPSATAAVKMEPENKYLPELMAEKDSLDPSFTHAMQLLSVEIEKIQKGESKKDDEENYLDLFSHKNMKLKERVLIPVKQYPKFNFVGKILGPQGNTIKRLQEETGAKISVLGKGSMRDKAKEEELRKGGDPKYAHLNMDLHVFIEVFGPPCEAYALMAHAMEEVKKFLVPDMMDDICQEQFLELSYLNGVPEPSRGRGVSVRGRGAAPPPPPVPRGRGVGPPRGALVRGTPVRGSITRGATVTRGVPPPPTVRGAPTPRARTAGIQRIPLPPTPAPETYEDYGYDDTYAEQSYEGYEGYYSQSQGESEYYDYGHGELQDSYEAYGQDDWNGTRPSLKAPPARPVKGAYREHPYGRY
# notes: also called KHDRBS1
# How the values were obtained:
# [1] = target: B3; assay: immunoprecipitation of endogenous Sam68 from MEF cells, immunoblot for TNFR (FIG. 10)
# Experimental: (§1) 20-25×10⁶ control and treated cells were lysed in a rotator at 4° C. for 30 minutes in the lysis buffer (1.0% Triton-X100, 20 mM HEPES (pH 7.6), 150 mM NaCl, 1 mM EDTA, 10% glycerol and complete protease inhibitor cocktail). The immunoprecipitates were washed thrice with the lysis buffer and boiled with LDS sample buffer (Invitrogen). Samples with the endogenous protein complexes were resolved in Novex 4-12% Bis-Tris gels (Invitrogen) and transferred to nitrocellulose membrane, probed using relevant antibodies and detected using the SuperSignal West Pico or West Femto Chemiluminescent Substrate System (Pierce). Detection of proteins in the immunoprecipitates with molecular weight close to the denatured heavy and light chains of immunoglobulins (50 kDa and 25 kDa respectively) was performed using native IgG detection reagent (Pierce). […] Additionally, membrane fractionation was performed on cells treated with TNF.
# [2] = target: T1, Sam68, endogenous, in human cells (HeLa, 293T) (human, UniProt Q07666 1-443); assay: immunoprecipitation of TNFR with anti-TNFR antibody from HeLa cells, immunoblot (FIG. 9E)
# T1 construct: also called endogenous Sam68
# Experimental: as §1
# [3] = target: T2, RIP, endogenous, in mouse embryonic fibroblasts (mouse, UniProt Q60855 1-656); assay: immunoprecipitation of Sam68 from TNF-treated MEF cells, probed for RIP (FIG. 15E)
# T2 sequence (looked up): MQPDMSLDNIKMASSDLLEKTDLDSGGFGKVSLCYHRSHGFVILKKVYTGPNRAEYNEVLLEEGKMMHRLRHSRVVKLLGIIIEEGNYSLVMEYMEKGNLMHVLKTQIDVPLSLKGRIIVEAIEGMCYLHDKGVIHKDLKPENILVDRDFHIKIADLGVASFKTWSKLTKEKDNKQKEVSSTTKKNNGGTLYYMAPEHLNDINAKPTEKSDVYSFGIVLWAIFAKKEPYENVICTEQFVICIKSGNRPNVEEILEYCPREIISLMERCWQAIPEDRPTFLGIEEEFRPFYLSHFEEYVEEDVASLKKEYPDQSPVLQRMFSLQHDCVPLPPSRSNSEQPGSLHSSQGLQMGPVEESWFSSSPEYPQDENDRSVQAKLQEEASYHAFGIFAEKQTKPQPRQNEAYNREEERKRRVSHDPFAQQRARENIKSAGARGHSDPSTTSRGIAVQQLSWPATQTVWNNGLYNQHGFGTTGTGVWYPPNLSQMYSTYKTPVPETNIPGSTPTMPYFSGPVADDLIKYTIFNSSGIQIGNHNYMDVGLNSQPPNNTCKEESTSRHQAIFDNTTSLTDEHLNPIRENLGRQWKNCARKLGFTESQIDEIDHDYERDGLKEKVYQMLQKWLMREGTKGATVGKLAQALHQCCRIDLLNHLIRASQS
binder,measurement,setting,value
B1,binding result,[1],binds
B2,binding result,[2],binds
B3,binding result,[3],binds
